Here are results for 2 variants from IntAct's records for PubMed 23027862.

B1: Beta-1,3-galactosyl-O-glycosyl-glycoprotein beta-1,6-N-acetylglucosaminyltransferase (Homo sapiens), Q02742 (parent)
chain: MLRTLLRRRLFSYPTKYYFMVLVLSLITFSVLRIHQKPEFVSVRHLELAGENPSSDINCTKVLQGDVNEIQKVKLEILTVKFKKRPRWTPDDYINMTSDCSSFIKRRKYIVEPLSKEEAEFPIAYSIVVHHKIEMLDRLLRAIYMPQNFYCIHVDTKSEDSYLAAVMGIASCFSNVFVASRLESVVYASWSRVQADLNCMKDLYAMSANWKYLINLCGMDFPIKTNLEIVRKLKLLMGENNLETERMPSHKEERWKKRYEVVNGKLTNTGTVKMLPPLETPLFSGSAYFVVSREYVGYVLQNEKIQKLMEWAQDTYSPDEYLWATIQRIPEVPGSLPASHKYDLSDMQAVARFVKWQYFEGDVSKGAPYPPCDGVHVRSVCIFGAGDLNWMLRKHHLFANKFDVDVDLFAIQCLDEHLRHKALETLKH

The variants in the first test derive from B1. The following applies: with golp3_human GOLPH3, Q9H4A6.
Chain of golp3_human GOLPH3, Q9H4A6 (Q9H4A6 whole entry): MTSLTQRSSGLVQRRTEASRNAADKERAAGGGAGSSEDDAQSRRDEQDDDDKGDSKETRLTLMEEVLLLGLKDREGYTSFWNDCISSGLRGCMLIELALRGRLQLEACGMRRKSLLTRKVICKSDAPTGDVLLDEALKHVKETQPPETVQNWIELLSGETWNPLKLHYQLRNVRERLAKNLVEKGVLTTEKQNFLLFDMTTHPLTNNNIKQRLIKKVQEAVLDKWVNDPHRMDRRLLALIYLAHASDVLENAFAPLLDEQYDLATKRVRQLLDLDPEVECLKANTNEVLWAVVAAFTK
Take MLRTAARRRLFSYPTKYYFMVLVLSLITFSVLRIHQKPEFVSVRHLELAGENPSSDINCTKVLQGDVNEIQKVKLEILTVKFKKRPRWTPDDYINMTSDCSSFIKRRKYIVEPLSKEEAEFPIAYSIVVHHKIEMLDRLLRAIYMPQNFYCIHVDTKSEDSYLAAVMGIASCFSNVFVASRLESVVYASWSRVQADLNCMKDLYAMSANWKYLINLCGMDFPIKTNLEIVRKLKLLMGENNLETERMPSHKEERWKKRYEVVNGKLTNTGTVKMLPPLETPLFSGSAYFVVSREYVGYVLQNEKIQKLMEWAQDTYSPDEYLWATIQRIPEVPGSLPASHKYDLSDMQAVARFVKWQYFEGDVSKGAPYPPCDGVHVRSVCIFGAGDLNWMLRKHHLFANKFDVDVDLFAIQCLDEHLRHKALETLKH [L5A;L6A]: the “effect of a mutation on the interaction” value was “disrupting interaction strength”.

A further test covers variants of B1. The following applies: with golp3_human GOLPH3, Q9H4A6. This is another data set of the same source.
For MLRTLLAAALFSYPTKYYFMVLVLSLITFSVLRIHQKPEFVSVRHLELAGENPSSDINCTKVLQGDVNEIQKVKLEILTVKFKKRPRWTPDDYINMTSDCSSFIKRRKYIVEPLSKEEAEFPIAYSIVVHHKIEMLDRLLRAIYMPQNFYCIHVDTKSEDSYLAAVMGIASCFSNVFVASRLESVVYASWSRVQADLNCMKDLYAMSANWKYLINLCGMDFPIKTNLEIVRKLKLLMGENNLETERMPSHKEERWKKRYEVVNGKLTNTGTVKMLPPLETPLFSGSAYFVVSREYVGYVLQNEKIQKLMEWAQDTYSPDEYLWATIQRIPEVPGSLPASHKYDLSDMQAVARFVKWQYFEGDVSKGAPYPPCDGVHVRSVCIFGAGDLNWMLRKHHLFANKFDVDVDLFAIQCLDEHLRHKALETLKH [R7A;R8A;R9A], the “effect of a mutation on the interaction” value is “disrupting interaction strength”.
